These results are taken from paper PMC7588069.

The assay concerns the target GST fusion with the receptor interaction domains (RID) of NCoRδ (region equivalent to amino acids 1817–2453 of NCoRω). The assay is described as follows: pull-down; GST fusion protein (~50 ng) immobilised on ~10 μl glutathione-agarose; 35S-radiolabeled in vitro translated nuclear receptor (2–5 μl TnT product) in 120 μl HEMG buffer (4 mM HEPES pH 7.8, 0.2 mM EDTA, 5 mM MgCl2, 10% glycerol, 100 mM KCl, 0.1% Nonidet P-40, 1.5 mM DTT) with 10 mg/ml BSA; 3 hr at 4°C; eluted with 10 mM glutathione, SDS-PAGE, PhosphorImager.

On to “Peroxisome Proliferator Activated Receptor γ (from UniProt P37231 1-505)”, for which the relative binding to NCoRδ versus NCoRω (ratio (NCoRδ versus NCoRω)) came out at 0.88.

In the case of “Thyroid Hormone Receptor α (from UniProt P10827-2 1-410)”, the relative binding to NCoRδ versus NCoRω (ratio (NCoRδ versus NCoRω)) was found to be 0.42.

B1: Peroxisome Proliferator Activated Receptor α (receptor)
chain: MVDTESPLCPLSPLEAGDLESPLSEEFLQEMGNIQEISQSIGEDSSGSFGFTEYQYLGSCPGSDGSVITDTLSPASSPSSVTYPVVPGSVDESPSGALNIECRICGDKASGYHYGVHACEGCKGFFRRTIRLKLVYDKCDRSCKIQKKNRNKCQYCRFHKCLSVGMSHNAIRFGRMPRSEKAKLKAEILTCEHDIEDSETADLKSLAKRIYEAYLKNFNMNKVKARVILSGKASNNPPFVIHDMETLCMAEKTLVAKLVANGIQNKEAEVRIFHCCQCTSVETVTELTEFAKAIPGFANLDLNDQVTLLKYGVYEAIFAMLSSVMNKDGMLVAYGNGFITREFLKSLRKPFCDIMEPKFDFAMKFNALELDDSDISLFVAAIICCGDRPGLLNVGHIEKMQEGIVHVLRLHLQSNHPDDIFLFPKLLQKMADLRQLVTEHAQLVQIIKKTESDAALHPLLQEIYRDMY
modifications: 35S-radiolabeled
Regarding B1, the relative binding to NCoRδ versus NCoRω (ratio (NCoRδ versus NCoRω)) is 0.79.

B2: Liver X Receptor α (receptor)
chain: MSLWLGAPVPDIPPDSAVELWKPGAQDASSQAQGGSSCILREEARMPHSAGGTAGVGLEAAEPTALLTRAEPPSEPTEIRPQKRKKGPAPKMLGNELCSVCGDKASGFHYNVLSCEGCKGFFRRSVIKGAHYICHSGGHCPMDTYMRRKCQECRLRKCRQAGMREECVLSEEQIRLKKLKRQEEEQAHATSLPPRASSPPQILPQLSPEQLGMIEKLVAAQQQCNRRSFSDRLRVTPWPMAPDPHSREARQQRFAHFTELAIVSVQEIVDFAKQLPGFLQLSREDQIALLKTSAIEVMLLETSRRYNPGSESITFLKDFSYNREDFAKAGLQVEFINPIFEFSRAMNELQLNDAEFALLIAISIFSADRPNVQDQLQVERLQHTYVEALHAYVSIHHPHDRLMFPRMLMKLVSLRTLSSVHSEQVFALRLQDKKLPPLLSEIWDVHE
modifications: 35S-radiolabeled
As for B2, the relative binding to NCoRδ versus NCoRω (ratio (NCoRδ versus NCoRω)) stood at 0.51.

B3: Farnesoid X Receptor (receptor)
chain: MVMQFQGLENPIQISPHCSCTPSGFFMEMMSMKPAKGVLTEQVAGPLGQNLEVEPYSQYSNVQFPQVQPQISSSSYYSNLGFYPQQPEEWYSPGIYELRRMPAETLYQGETEVAEMPVTKKPRMGASAGRIKGDELCVVCGDRASGYHYNALTCEGCKGFFRRSITKNAVYKCKNGGNCVMDMYMRRKCQECRLRKCKEMGMLAECMYTGLLTEIQCKSKRLRKNVKQHADQTVNEDSEGRDLRQVTSTTKSCREKTELTPDQQTLLHFIMDSYNKQRMPQEITNKILKEEFSAEENFLILTEMATNHVQVLVEFTKKLPGFQTLDHEDQIALLKGSAVEAMFLRSAEIFNKKLPSGHSDLLEERIRNSGISDEYITPMFSFYKSIGELKMTQEEYALLTAIVILSPDRQYIKDREAVEKLQEPLLDVLQKLCKIHQPENPQHFACLLGRLTELRTFNHHHAEMLMSWRVNDHKFTPLLCEIWDVQ
modifications: 35S-radiolabeled
As to B3, the relative binding to NCoRδ versus NCoRω (ratio (NCoRδ versus NCoRω)) came to 0.35.
